The chains are these.
B1: DNA topoisomerase 3-alpha, residues 812 to 851; numbered along this chain, Q13472 (parent)
chain: TCNCGQEAVLLTVRKEGPNRGRQFFKCNGGSCNFFLWADS

± gives the uncertainty stated by the source.

Variants of B1 are the subject of the series. Nature of the series: abundance fitness (aPCA) (normalised: wild type 0, dead -1); higher = more abundant; growth selection in yeast, the domain comes from the species named. The note with it: Homo sapiens.
Take TCNCGQEAVGLTVRKEGPNRGRQFFKCNGGSCNFFLWADS: the abundance fitness was -0.474 ± 0.11. Under TCNCGQEAVRLTVRKEGPNRGRQFFKCNGGSCNFFLWADS stands -0.126 ± 0.076. TCNCGQEAVLLTVRKEGPNRGRQFFKCNGSSCNFFLWADS: the abundance fitness was -0.304 ± 0.069. As for TCNCGQEAVLLTVRKEGPNRGRQFFKCNGQSCNFFLWADS, the abundance fitness is -0.265 ± 0.071.

For TCNCGQEAVLLTVRKEGPNRGRQFFLCNGGSCNFFLWADS, the abundance fitness was -0.318 ± 0.096.

Regarding TCNCGQEAVLLTVRKEGPNRGRQFFSCNGGSCNFFLWADS, the abundance fitness is -0.011 ± 0.11.

As to TCNCGQEAVLLTVRKEGPNRGRQFFKGNGGSCNFFLWADS, the abundance fitness was -1.19 ± 0.41. Turning to TCNCGQEAVLLTVRKEGPNRGKQFFKCNGGSCNFFLWADS, the abundance fitness worked out at 0.007 ± 0.095. Under TCNCGQEAVLLTVRKEGPNRGSQFFKCNGGSCNFFLWADS stands -0.513 ± 0.086; under TCNCGQEAVLLTVRKEGPNRGWQFFKCNGGSCNFFLWADS, -0.629 ± 0.077. TCNCGQEAVLLTVRKEGPNRGAQFFKCNGGSCNFFLWADS: the abundance fitness is -0.401 ± 0.13. Under TCNCGQEAVLLTVRKEGPNCGRQFFKCNGGSCNFFLWADS stands -0.549 ± 0.32; under TCNCGQEAVLLTVRKEGPNHGRQFFKCNGGSCNFFLWADS, 0.199 ± 0.27. The same measure for TCNCGQEAVLLTVRKEGPNRGRQFMKCNGGSCNFFLWADS: -0.149 ± 0.066; for TCNCGQEAVLLTVRKSGPNRGRQFFKCNGGSCNFFLWADS: -0.344 ± 0.33; for TCNCGQEAVLLTVRKLGPNRGRQFFKCNGGSCNFFLWADS: -0.246 ± 0.058. The same measure for TCNCGQEAVLLTVRKKGPNRGRQFFKCNGGSCNFFLWADS: -0.071 ± 0.1; for TCNCGQEAVLLTVRKEGPNRGRQFFKCAGGSCNFFLWADS: 0.075 ± 0.069. TCNCGQEAVLLTVRKEGPNRGRQFFKCNGGICNFFLWADS: the abundance fitness was -0.209 ± 0.27. Under TCNCGQEAVLLTVRKEGPNRGRQFFKCNGGSCNFFLWAGS stands -0.227 ± 0.083.

Consider TCNCGQEAVLLTVRKEGPNRGRQFFKCNGGSCNFFLWARS, for which the abundance fitness was -0.838 ± 0.49. The same measure for TCNCGQEAVLLTVRKEGPDRGRQFFKCNGGSCNFFLWADS: 0.069 ± 0.046; for TCNCGQEAVLLTVRKEGPERGRQFFKCNGGSCNFFLWADS: -0.222 ± 0.19.

Take TCNCGQEAVLLTVRKEGPRRGRQFFKCNGGSCNFFLWADS: the abundance fitness was -0.777 ± 0.49. The same measure for TCNCGQEAVLLEVRKEGPNRGRQFFKCNGGSCNFFLWADS: -0.722 ± 0.22; for TCNCGQEAVLLRVRKEGPNRGRQFFKCNGGSCNFFLWADS: -0.437 ± 0.086. TCNCGQEAVLLAVRKEGPNRGRQFFKCNGGSCNFFLWADS: the abundance fitness was -0.59 ± 0.3.

As for TCNVGQEAVLLTVRKEGPNRGRQFFKCNGGSCNFFLWADS, the abundance fitness was -1.09 ± 0.19. Take TCNCGQEAVLLTVRKEGPNRGRQFFKCNGGSCNLFLWADS: the abundance fitness was -0.703 ± 0.15.

Regarding TCNCGQEAVLLTVRKEGPNRGRQFFKCNGGSCNEFLWADS, the abundance fitness is -0.626 ± 0.17.

Turning to TCNCGQEAVLLTVRKEGPNRGRQFFKCNGGSCNHFLWADS, the abundance fitness was -0.396 ± 0.22. As for TCNCGQEAVLLTVMKEGPNRGRQFFKCNGGSCNFFLWADS, the abundance fitness is 0.06 ± 0.057. In the case of TCNCGQEAVLLTVAKEGPNRGRQFFKCNGGSCNFFLWADS, the abundance fitness was -0.006 ± 0.047.

In the case of TCNCGQEAVLLTVRKEVPNRGRQFFKCNGGSCNFFLWADS, the abundance fitness is -0.675 ± 0.14. The same measure for TCNCGQEAVLLTVRKEGPNRGRQFFKCNGGSCWFFLWADS: -0.572 ± 0.11; for TCNCGQEAVLLTVRKEGPNRGRQFFKCNGGSCTFFLWADS: -0.075 ± 0.079. The same measure for TCNCGQEAVLATVRKEGPNRGRQFFKCNGGSCNFFLWADS: 0.012 ± 0.23. For the variant TCNCGQEAVLRTVRKEGPNRGRQFFKCNGGSCNFFLWADS, the abundance fitness was found to be 0.049 ± 0.053. Take TCNCGQPAVLLTVRKEGPNRGRQFFKCNGGSCNFFLWADS: the abundance fitness is -0.023 ± 0.088. Under TCNCGQELVLLTVRKEGPNRGRQFFKCNGGSCNFFLWADS stands -0.238 ± 0.12; under TCNCGQEAVLLTVRKEGPNRGRWFFKCNGGSCNFFLWADS, -0.574 ± 0.14; under TCNCQQEAVLLTVRKEGPNRGRQFFKCNGGSCNFFLWADS, -0.259 ± 0.073. Take TCNCSQEAVLLTVRKEGPNRGRQFFKCNGGSCNFFLWADS: the abundance fitness was -0.377 ± 0.22. The same measure for TCNCHQEAVLLTVRKEGPNRGRQFFKCNGGSCNFFLWADS: -0.419 ± 0.14. As for TCNCAQEAVLLTVRKEGPNRGRQFFKCNGGSCNFFLWADS, the abundance fitness is -0.437 ± 0.22.

Consider TCNCVQEAVLLTVRKEGPNRGRQFFKCNGGSCNFFLWADS, for which the abundance fitness is -0.714 ± 0.098. As to TCRCGQEAVLLTVRKEGPNRGRQFFKCNGGSCNFFLWADS, the abundance fitness was -0.539 ± 0.1. Under TCNCGQEAVLLTVRKEGWNRGRQFFKCNGGSCNFFLWADS stands -0.716 ± 0.14; under TCNCGQEAVLLTVRKEGCNRGRQFFKCNGGSCNFFLWADS, -0.482 ± 0.18; under TCNCGAEAVLLTVRKEGPNRGRQFFKCNGGSCNFFLWADS, 0.229 ± 0.12.

Turning to TCNCGGEAVLLTVRKEGPNRGRQFFKCNGGSCNFFLWADS, the abundance fitness was -0.182 ± 0.12.

On to TCNCGQEAVLLTVRKEGPNRGRQFFKCNGGSCNFFLRADS, for which the abundance fitness was -0.51 ± 0.085.

For the variant TCNCGQEAVLLTVRKEGPNRGRQFFKCNGGSCNFFLGADS, the abundance fitness was -0.48 ± 0.048.

As to TCNCGQEAVLLTVRKEGPNRGRQFFKCNGGSCNFFLVADS, the abundance fitness was -0.19 ± 0.078.

(Values after the Human Domainome abundance scans (Beltran et al. 2025).)
